One experiment deals with SST-R2 and SST-R5. The conditions noted are these: activity described in WO 99/65508; cited from earlier work.
Another experiment deals with T1, human cloned SST-R2 (human, UniProt P30874 1-369).
T1 construct: whole, on cells; Assayed as membrane preparations of CHO cells expressing the cloned receptor, not as intact cells; also called hSST-R2; human SST-R2
The experiment in a line: inhibition of 125I-Tyr11-SRIF-14 binding to membranes of CHO cells expressing cloned human SST-R2. The procedure:
The SST analogs were tested for their potency in inhibition of the binding of ¹²⁵I-Tyr¹¹-SRIF (based on the method described by Raynor et. al., Molecular Pharmnacology 43: 838, 1993) to membrane preparations expressing the transmembranal SST receptors (SST-R1, 2, 3, 4 or 5). The receptor preparations used for these tests were either from the cloned human receptors selectively and stably expressed in Chinese Hamster Ovary (CHO) cells or from cell lines naturally expressing the SST-R5. Typically, cell membranes were homogenized in Tris buffer in the presence of protease inhibitors and incubated for 30-40 minutes with ¹²⁵I-Tyr¹¹-SRIF with different concentrations of the tested sample. The binding reactions were filtered, the filters were washed and the bound radioactivity was counted in β counter after addition of scintillation colution. Non specific binding was defined as the radioactivity remaining bound in the presence of 1 μM unlabeled SRIF-14.

Consider 24 molecules from patent US20050226813A1, “Labelled somatostatin analogs backbone cyclized through metal complexation” (priority 2002, published 2005).

*1 amine or outer side, *2 acyl side, *3 side chain or, on linkers, in order; H or OH if unused. Where no end group is shown, it is not given here. [ ]: non-standard residue; d: D form. ReO = oxorhenium(V), one metal core binding both hemi-chelators, from trichlorooxobis(triphenylphosphine)rhenium(V); GlyN3 = N-(3-aminopropyl)glycine amide, Cys acylated on the omega-amine, NC(=O)CN(CCCN[*:3])[*:1]; N(2-Aminoethyl)Gly = O=C(CN(CCN[*:3])[*:1])[*:2] A value given as a limit tells only on which side of the number the result lay.

T1 sequence (P30874 whole entry): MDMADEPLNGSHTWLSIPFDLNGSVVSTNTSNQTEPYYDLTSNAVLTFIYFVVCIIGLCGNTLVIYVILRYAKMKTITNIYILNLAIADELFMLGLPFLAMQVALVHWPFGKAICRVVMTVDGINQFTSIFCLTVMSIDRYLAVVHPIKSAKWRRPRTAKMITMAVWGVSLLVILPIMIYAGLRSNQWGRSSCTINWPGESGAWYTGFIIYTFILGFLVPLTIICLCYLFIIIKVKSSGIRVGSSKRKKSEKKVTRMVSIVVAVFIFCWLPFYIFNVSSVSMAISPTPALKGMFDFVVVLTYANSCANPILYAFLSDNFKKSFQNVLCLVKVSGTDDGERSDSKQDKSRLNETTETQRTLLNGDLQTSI

For the molecule “*GABA-Phe-Trp-DTrp-Lys-Thr-Phe-GlyC3*-NH2 [PTR 3173]”, the receptor selectivity entry in the experiment with SST-R2 and SST-R5 was “selective for SST-R2 and SST-R5”.

B1: ReO-GF-15 (peptide)
peptide: CFWWKTFG
modifications: not fully specified; D-Cys at 1; D-Trp at 4; GlyN6 building unit at 8 with L-Cys on its omega-amine; C-terminal amide; ReO (oxorhenium(V)) chelated by the two Cys closes the ring
For orientation: IC50 means the midpoint of a concentration-inhibition curve. A lower IC50 goes with inhibition by little substance. Regarding B1, in the experiment with human cloned SST-R2, the 50% inhibitory concentration (IC50) is over 10 nM.

B2: ReO-GF-33 (peptide)
peptide: CXFWWKTFG
modifications: L-Cys at 1; GABA at 2 (written X); D-Trp at 5; GlyN2 building unit at 9 with L-Cys on its omega-amine; C-terminal amide; ReO (oxorhenium(V)) chelated by the two Cys closes the ring
In the experiment with human cloned SST-R2, B2 gave an IC50 of over 10 nM.

B3: ReO-GF-42 (peptide)
peptide: CGFW[dW]KTF[N(2-Aminoethyl)Gly](dC)-NH2
modifications: bridge (positions not given here) via ReO; not fully specified (bridges); also: N2S2 oxorhenium(V) chelate via the two Cys
As for B3, the IC50 with human cloned SST-R2 is over 10 nM.

B4: ReO-GF-38 (peptide)
peptide: CXFWWKTFG
modifications: L-Cys at 1; beta-Ala at 2 (written X); D-Trp at 5; GlyN2 building unit at 9 with D-Cys on its omega-amine; C-terminal amide; ReO (oxorhenium(V)) chelated by the two Cys closes the ring
In the experiment with human cloned SST-R2, B4 showed a 50% inhibitory concentration (IC50) of over 10 nM.

B5: ReO-GF-27 (peptide)
peptide: CGFWWKTFG
modifications: not fully specified; D-Cys at 1; D-Trp at 5; GlyN3 building unit at 9 with L-Cys on its omega-amine; C-terminal amide; ReO (oxorhenium(V)) chelated by the two Cys closes the ring
As to B5, the IC50 with human cloned SST-R2 was determined as 20 nM.

B6: ReO-GF-28 (peptide)
peptide: CGFWWKTFG
modifications: not fully specified; D-Cys at 1; D-Trp at 5; GlyN3 building unit at 9 with D-Cys on its omega-amine; C-terminal amide; ReO (oxorhenium(V)) chelated by the two Cys closes the ring
With B6, in the experiment with human cloned SST-R2, the IC50 is over 10 nM.

B7: ReO-GF-19 (peptide)
peptide: CXFWWKTFG
modifications: D-Cys at 1; GABA at 2 (written X); D-Trp at 5; GlyN3 building unit at 9 with L-Cys on its omega-amine; C-terminal amide; ReO (oxorhenium(V)) chelated by the two Cys closes the ring
For B7, the IC50 with human cloned SST-R2 was over 10 nM.

B8: ReO-GF-17 (peptide)
peptide: CXFWWKTFG
modifications: L-Cys at 1; GABA at 2 (written X); D-Trp at 5; GlyN3 building unit at 9 with L-Cys on its omega-amine; C-terminal amide; ReO (oxorhenium(V)) chelated by the two Cys closes the ring
In the experiment with human cloned SST-R2, B8 had an IC50 of 24 nM.

B9: ReO-GF-34 (peptide)
peptide: CXFWWKTFG
modifications: L-Cys at 1; GABA at 2 (written X); D-Trp at 5; GlyN2 building unit at 9 with D-Cys on its omega-amine; C-terminal amide; ReO (oxorhenium(V)) chelated by the two Cys closes the ring
The molecule B9 came in with an IC50 in the experiment with human cloned SST-R2 of about 100 nM.

B10: ReO-GF-44 (peptide)
peptide: CGFWWKTFG
modifications: not fully specified; D-Cys at 1; D-Trp at 5; GlyN2 building unit at 9 with D-Cys on its omega-amine; C-terminal amide; ReO (oxorhenium(V)) chelated by the two Cys closes the ring
The molecule B10 came in with an IC50 in the experiment with human cloned SST-R2 of over 10 nM.

B11: ReO-GF-22 (peptide)
peptide: CXFWWKTFG
modifications: L-Cys at 1; beta-Ala at 2 (written X); D-Trp at 5; GlyN3 building unit at 9 with D-Cys on its omega-amine; C-terminal amide; ReO (oxorhenium(V)) chelated by the two Cys closes the ring
As to B11, the IC50 with human cloned SST-R2 came to 11 nM.

B12: ReO-GF-46 (peptide)
peptide: CFW[dW]KTF[N(2-Aminoethyl)Gly](dC)-NH2
modifications: bridge (positions not given here) via ReO; not fully specified (bridges); also: N2S2 oxorhenium(V) chelate via the two Cys
B12: the IC50 with human cloned SST-R2 is over 10 nM.

B13: ReO-GF-6 (peptide)
peptide: CXFWWKTFG
modifications: L-Cys at 1; beta-Ala at 2 (written X); D-Trp at 5; GlyN6 building unit at 9 with D-Cys on its omega-amine; C-terminal amide; ReO (oxorhenium(V)) chelated by the two Cys closes the ring
notes: also called ReO-GF-06; ReO-LCys*-βAla-Phe-Trp-DTrp-Lys-Thr-Phe-GlyN6(DCys*)-NH2
In turn, B13 returned an IC50 with human cloned SST-R2 of 5.3 nM. That is a single-digit nanomolar value.

B14: ReO-GF-2 (peptide)
peptide: CXFWWKTFG
modifications: L-Cys at 1; GABA at 2 (written X); D-Trp at 5; GlyN6 building unit at 9 with D-Cys on its omega-amine; C-terminal amide; ReO (oxorhenium(V)) chelated by the two Cys closes the ring
notes: also called ReO-GF-02; ReO-LCys*-GABA-Phe-Trp-DTrp-Lys-Thr-Phe-GlyN6(DCys*)-NH2
B14 gave an IC50 with human cloned SST-R2 of 3.8 nM. The IC50 values of the last two molecules are within 1.5-fold of each other.

B15: ReO-GF-25 (peptide)
peptide: CGFW[dW]KTF[GlyN3](Cys)-NH2
modifications: bridge (positions not given here) via ReO; not fully specified (bridges); also: N2S2 oxorhenium(V) chelate via the two Cys
Regarding B15, in the experiment with human cloned SST-R2, the IC50 was over 10 nM.

B16: ReO-GF-29 (peptide)
peptide: CFWWKTFG
modifications: not fully specified; L-Cys at 1; D-Trp at 4; GlyN3 building unit at 8 with L-Cys on its omega-amine; C-terminal amide; ReO (oxorhenium(V)) chelated by the two Cys closes the ring
notes: also called ReO-LCys*-Phe-Trp-DTrp-Lys-Thr-Phe-GlyN3(LCys*)-NH2
The molecule B16 had an IC50 with human cloned SST-R2 of 2 nM. That is a single-digit nanomolar value.

B17: ReO-GF-3 (peptide)
peptide: CXFWWKTFG
modifications: D-Cys at 1; GABA at 2 (written X); D-Trp at 5; GlyN6 building unit at 9 with L-Cys on its omega-amine; C-terminal amide; ReO (oxorhenium(V)) chelated by the two Cys closes the ring
notes: also called ReO-GF-03; ReO-DCys*-GABA-Phe-Trp-DTrp-Lys-Thr-Phe-GlyN6(LCys*)-NH2
On to B17, for which the IC50 with human cloned SST-R2 turned out to be 6 nM.

B18: ReO-GF-5 (peptide)
peptide: CXFWWKTFG
modifications: L-Cys at 1; beta-Ala at 2 (written X); D-Trp at 5; GlyN6 building unit at 9 with L-Cys on its omega-amine; C-terminal amide; ReO (oxorhenium(V)) chelated by the two Cys closes the ring
B18 returned an IC50 with human cloned SST-R2 of 35 nM.

B19: ReO-GF-26 (peptide)
peptide: CGFW[dW]KTF[GlyN3](dC)-NH2
modifications: bridge (positions not given here) via ReO; not fully specified (bridges); also: N2S2 oxorhenium(V) chelate via the two Cys
As to B19, the IC50 with human cloned SST-R2 was about 10 nM.

B20: ReO-GF-24 (peptide)
peptide: CXFWWKTFG
modifications: not fully specified; D-Cys at 1; beta-Ala at 2 (written X); D-Trp at 5; GlyN3 building unit at 9 with D-Cys on its omega-amine; C-terminal amide; ReO (oxorhenium(V)) chelated by the two Cys closes the ring
B20: the IC50 with human cloned SST-R2 was 23 nM.

B21: ReO-GF-7 (peptide)
peptide: CXFWWKTFG
modifications: not fully specified; D-Cys at 1; beta-Ala at 2 (written X); D-Trp at 5; GlyN6 building unit at 9 with L-Cys on its omega-amine; C-terminal amide; ReO (oxorhenium(V)) chelated by the two Cys closes the ring
In turn, B21 gave an IC50 with human cloned SST-R2 of 12 nM.

B22: ReO-GF-21 (peptide)
peptide: CXFWWKTFG
modifications: L-Cys at 1; beta-Ala at 2 (written X); D-Trp at 5; GlyN3 building unit at 9 with L-Cys on its omega-amine; C-terminal amide; ReO (oxorhenium(V)) chelated by the two Cys closes the ring
notes: also called ReO-LCys*-βAla-Phe-Trp-DTrp-Lys-Thr-Phe-GlyN3(LCys*)-NH2
B22 returned a half-maximal inhibitory concentration (IC50) with human cloned SST-R2 of 1 nM.

B23: ReO-GF-31 (peptide)
peptide: CFWWKTFG
modifications: not fully specified; D-Cys at 1; D-Trp at 4; GlyN3 building unit at 8 with L-Cys on its omega-amine; C-terminal amide; ReO (oxorhenium(V)) chelated by the two Cys closes the ring
notes: also called ReO-DCys*-Phe-Trp-DTrp-Lys-Thr-Phe-GlyN3(LCys*)-NH2
Consider B23, for which the 50% inhibitory concentration (IC50) in the experiment with human cloned SST-R2 is 1.6 nM.
